Results published in US6274134A, “Human cell adhesion protein AAMP-1 and uses thereof” (National Institutes of Health, priority 1993, dated 2001).

Assay: H3-heparin binding assay, recombinant AAMP blotted onto Immobilon-P
Conditions: tritiated heparin 2.5 U/mL
Experimental: Heparin binding assays utilizing competition of tritiated heparin (heparin sodium salt, [^3 H(G)]-, NEN DuPont), with unlabeled heparin, were performed for recombinant AAMP, solubilized P189 (immobilized on CovaLink™ plates), and for aggregated P189 in 0.1% BSA-DMEM solutions. Recombinant AAMP in bacterial lysate and bovine serum albumin in equal amounts were electrophoresed for gel purification, and blotted onto Immobilon-P™. These blots were incubated 3 hours with tritiated heparin, 2.5 U/mL (10.7 uCi/mL) at room temperature, alone and with increasing amounts of unlabeled heparin (0.125-0.25 U/mL) for competition. Following 3 washes, the bands of AAMP recombinant protein and BSA (triplicates for each heparin concentration) were cut from the blotted Immobilon P strips, placed in scintillation vials, and counted for comparisons. Solubilized P189 (6.25 ug/mL) was immobilized on CovaLink™ plates, as described previously, and incubated one hour at room temperature with tritiated heparin, […] (0.213 uCi/mL), alone and with increasing amounts of unlabeled heparin (50-500 U/mL) for competition. Following three washes, the plate wells, in duplicates or triplicates for each heparin concentration, were placed in scintillation vials and counted. In separate assays, aggregates of P189 (200 ug/mL in 0.1% BSA-DMEM) were incubated one hour on a rocker at room temperature with tritiated heparin (0.05 U/mL) alone and with increasing amounts of unlabeled heparin (0.05-5 U/mL) for competition. Following centrifugation,the precipitate was washed with 0.1% BSA-DMEM, centrifuged again, and then transferred to scintillation vials for counting. The background cpm/umole protein levels for assays with AAMP recombinant protein competed with unlabeled heparin, were standardized to AAMP recombinant protein's average background cpm/umole protein with no labeled heparin present.

tritiated heparin binding, cpm above background per umole protein, with competition by equal amount of cold heparin (1:1 unlabeled heparin, 3 assays, S.D.): 2139 cpm/umole protein
tritiated heparin binding, cpm above background per umole protein, without competition (6 assays, S.D.): 9134+/-2699 cpm/umole protein
tritiated heparin binding, times more than background (BSA) (approx. 15 ug protein on Immobilon-P, 6 assays): 2.2+/-0.4 times
B1: Recombinant AAMP: Recombinant human cell adhesion protein AAMP, gel purified from bacterial lysate (SEQ ID NO:7) (protein)
chain: GPEKWIRRLRRMESESESGAAADTPPLETLSFHGDEEIIEVVELDPGPPDPDDLAQEMEDVDFEEEEEEEGNEEGWVLEPQEGVVGSMEGPDDSEVTFALHSASVFCVSLDPKTNTLAVTGGEDDKAFVWRLSDGELLFECAGHKDSVTCAGFSHDSTLVATGDMSGLLKVWQVDTKEEVWSFEAGDLEWMEWHPRAPVLLAGTADGNTWMWKVPNGDCKTFQGPNCPATCGRVLPDGKRAVVGYEDGTIRIWDLKQGSPIHVLKGTEGHQGPLTCVAANQDGSLILTGSVDCQAKLVSATTGKVVGVFRPETVASQPSLGEGEESESNSVESLGFCSVMPLAAVGYLDGTLAIYDLATQTLRHQCQHQSGIVQLLWEAGTAVVYTCSLDGIVRLWDARTGRLLTDYRGHTAEILDFALSKDASLVVTTSGDHKAKVFCVQRPDR
